Data reported in publication PMC5091643, “Dimer/monomer status and in vivo function of salt‐bridge mutants of the plant UV‐B photoreceptor UVR8” (The Plant Journal, 2016).
Numbering of substitutions follows the chain as printed. Numbers in names are those of the source. Blank lines part the entries; values can stand above or below the binder they belong to.

How the values were obtained:
[1] = target: T1, UV … LOCUS8 (UVR8), purified wild-type (Arabidopsis thaliana), Q9FN03; assay: SEC; purified proteins not exposed to UV-B; Superdex 200 HR10/30, 50 mM Tris pH 7.5, 150 mM NaCl, 1 mM β-ME, 0.02% sodium azide, 4°C; dimer to monomers; conditions: remark: other sources report otherwise
T1 chain: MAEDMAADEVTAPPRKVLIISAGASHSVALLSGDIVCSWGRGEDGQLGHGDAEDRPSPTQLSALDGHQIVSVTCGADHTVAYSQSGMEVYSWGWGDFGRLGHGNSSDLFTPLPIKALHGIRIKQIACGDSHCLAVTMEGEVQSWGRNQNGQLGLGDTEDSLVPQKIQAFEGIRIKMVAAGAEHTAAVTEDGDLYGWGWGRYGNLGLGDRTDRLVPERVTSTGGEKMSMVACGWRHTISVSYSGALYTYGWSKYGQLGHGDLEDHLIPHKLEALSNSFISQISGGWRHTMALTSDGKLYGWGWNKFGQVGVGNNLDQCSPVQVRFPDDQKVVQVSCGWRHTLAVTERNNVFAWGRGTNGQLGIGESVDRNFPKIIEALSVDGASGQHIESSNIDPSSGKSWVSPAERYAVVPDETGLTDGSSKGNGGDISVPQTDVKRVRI

[2] = target: T2, GFP-UVR8 (wild type) in transgenic Arabidopsis uvr8-1 (Arabidopsis thaliana), Q9FN03; assay: cross-linking; DSP (4 mM, 30 min on ice) added to PBS extracts of transgenic uvr8-1 plants not exposed to UV-B; 10% SDS-PAGE without β-ME, blot with anti-UVR8; conditions: remark: other sources report otherwise
T2 chain: T1 chain

[3] = target: T2, GFP-UVR8 (wild type) in transgenic …; assay: SDS-PAGE with non-boiled samples; whole cell extracts of transgenic uvr8-1 plants not exposed to UV-B; SDS-loading buffer, not boiled, 7.5% gel, blot with anti-UVR8; conditions: remark: other sources report otherwise
[4] = target: the molecule itself; assay: cross-linking; DSP (4 mM, 30 min on ice) added to PBS extracts of transgenic uvr8-1 plants not exposed to UV-B; 10% SDS-PAGE without β-ME, blot with anti-UVR8
[5] = target: the molecule itself; assay: SEC; purified proteins not exposed to UV-B; Superdex 200 HR10/30, 50 mM Tris pH 7.5, 150 mM NaCl, 1 mM β-ME, 0.02% sodium azide, 4°C; dimer to monomers
[6] = target: T3, GFP-UVR8 (wild type) transiently expressed in Nicotiana benthamiana (Arabidopsis thaliana), Q9FN03; assay: SEC; GFP fusions transiently expressed in N. benthamiana, not exposed to UV-B, immunoprecipitated with anti-GFP microbeads; eluates on Superdex 200, fractions blotted with anti-GFP; conditions: remark: other sources report otherwise
T3 chain: T1 chain

stoichiometry N [1]: 2
B1: UV … LOCUS8 (UVR8), purified wild-type, Q9FN03 1-440 (natural protein)
chain: T1 chain

stoichiometry N [2]: 2
stoichiometry N [3]: 2
B2: GFP-UVR8 (wild type) in transgenic Arabidopsis uvr8-1, Q9FN03 1-440 (natural protein)
chain: T1 chain

B3: GFP-UVR8^R286K in transgenic Arabidopsis uvr8-1 (natural protein, Arabidopsis thaliana, UniProt Q9FN03 1-440, looked up)
chain: T1 chain with R286K
notes: UV … LOCUS8 (UVR8), Arabidopsis thaliana; Sub-cloned into pEZR(K)L-C downstream of eGFP; also called line 2-3; source: transgenic Arabidopsis uvr8-1 plants (CaMV 35S promoter), in whole cell extract; not shown: eGFP, N-terminal, kept
stoichiometry N [4]: 2

B4: UVR8^R146A, purified (natural protein, Arabidopsis thaliana, UniProt Q9FN03 1-440, looked up)
chain: T1 chain with R146A
notes: UV … LOCUS8 (UVR8), Arabidopsis thaliana; source: E. coli, purified as described previously (Christie et al., 2012)
stoichiometry N [5]: 2

B5: UVR8^R286K, purified (natural protein, Arabidopsis thaliana, UniProt Q9FN03 1-440, looked up)
chain: T1 chain with R286K
notes: as for B4
stoichiometry N [5]: 2

stoichiometry N [6]: 2
B6: GFP-UVR8 (wild type) transiently expressed in Nicotiana benthamiana, Q9FN03 1-440 (natural protein)
chain: T1 chain

B7: GFP-UVR8^R146A in transgenic Arabidopsis uvr8-1 (natural protein, Arabidopsis thaliana, UniProt Q9FN03 1-440, looked up)
chain: T1 chain with R146A
notes: UV … LOCUS8 (UVR8), Arabidopsis thaliana; Sub-cloned into pEZR(K)L-C downstream of eGFP; also called line 9; source: transgenic Arabidopsis uvr8-1 plants (CaMV 35S promoter), in whole cell extract; not shown: eGFP, N-terminal, kept
stoichiometry N [4]: 2
